According to PMC2199365:

Molecular target: nascent 77FtsQTAG27 (E. coli) (UniProt P06136)
Test: cross-linking

UniProt P06136, sequence (P06136 1-77): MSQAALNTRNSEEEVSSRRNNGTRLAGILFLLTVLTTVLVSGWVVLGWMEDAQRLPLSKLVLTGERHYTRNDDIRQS

- concentration of SRP at which cross-linking saturated: 0.3 µM
B1: purified signal recognition particle (SRP: Ffh and 4.5S RNA) (complex)
chain: MFDNLTDRLSRTLRNISGRGRLTEDNVKDTLREVRMALLEADVALPVVREFINRVKEKAVGHEVNKSLTPGQEFVKIVRNELVAAMGEENQTLNLAAQPPAVVLMAGLQGAGKTTSVGKLGKFLREKHKKKVLVVSADVYRPAAIKQLETLAEQVGVDFFPSDVGQKPVDIVNAALKEAKLKFYDVLLVDTAGRLHVDEAMMDEIKQVHASINPVETLFVVDAMTGQDAANTAKAFNEALPLTGVVLTKVDGDARGGAALSIRHITGKPIKFLGVGEKTEALEPFHPDRIASRILGMGDVLSLIEDIESKVDRAQAEKLASKLKKGDGFDLNDFLEQLRQMKNMGGMASLMGKLPGMGQIPDNVKSQMDDKVLVRMEAIINSMTMKERAKPEIIKGSRKRRIAAGCGMQVQDVNRLLKQFDDMQRMMKKMKKGGMAKMMRSMKGMMPPGFPGR
